Source: article PMC6930800, “Coexpression of CCR7 and CXCR4 During B Cell Development Controls CXCR4 Responsiveness and Bone Marrow Homing” (Frontiers in Immunology, 2019)

T1: CCR7 expressed on CHO-K1 cells (UniProt P32248 25-378)
T1 construct: chemokine receptor CCR7, recombinant, on CHO-K1 cells; source: CHO-K1 cells expressing CCR7 only or co-expressing CXCR4 and CCR7
T1 sequence (looked up): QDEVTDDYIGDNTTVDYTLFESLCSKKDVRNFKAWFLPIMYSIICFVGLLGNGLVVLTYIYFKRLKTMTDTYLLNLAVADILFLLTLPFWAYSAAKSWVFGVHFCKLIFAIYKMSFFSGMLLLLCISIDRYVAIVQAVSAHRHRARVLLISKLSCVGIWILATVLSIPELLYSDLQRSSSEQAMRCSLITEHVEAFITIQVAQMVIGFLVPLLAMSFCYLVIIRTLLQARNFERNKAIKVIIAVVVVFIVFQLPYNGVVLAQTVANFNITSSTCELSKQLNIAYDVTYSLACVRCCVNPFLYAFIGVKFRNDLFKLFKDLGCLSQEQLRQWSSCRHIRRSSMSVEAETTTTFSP


Columns and labels:
[1] = target: T1, CCR7 expressed on CHO-K1 cells; assay: radioligand binding; competition on CHO-K1 cells co-expressing CXCR4 and CCR7; tracer 0.1 nM 125I-CCL19, increasing concentrations of unlabelled competitor; non-specific binding defined with 300 nM competitor; conditions: one partner purified
[2] = target: T1, CCR7 expressed on CHO-K1 cells; assay: radioligand binding; competition on CHO-K1 cells expressing CCR7 only; tracer 0.1 nM 125I-CCL19, increasing concentrations of unlabelled competitor; non-specific binding defined with 300 nM competitor; conditions: one partner purified

IC50 [1] [nM] | IC50 [2] [nM] | Binder
1.7 | 1.84 | CCL19 (ligand, UniProt Q99731 22-98, looked up, also called unlabeled CCL19) GTNDAEDCCLSVTQKPIPGYIVRNFHYLLIKDGCRVPAVVFTTLRGRQLCAPPDQPWVERIIQRLQRTSAKMKRRSS
4.2 | 4.06 | CCL21 (ligand, UniProt O00585 24-134, looked up) SDGGAQDCCLKYSQRKIPAKVVRSYRKQEPSLGCSIPAILFLPRKRSQAELCADPKELWVQQLMQHLDKTPSPQKPAQGCRKDRGASKTGKKGKGSKGCKRTERSQTPKGP
